US20240166747A1 (GlaxoSmithKline, published 2024)

T1: native cynomolgus monkey CD96 on primary cynomolgus monkey T cells (cynomolgus monkey, UniProt A0A2K5TWV6 22-569)
T1 construct: whole, on cells
T1 sequence: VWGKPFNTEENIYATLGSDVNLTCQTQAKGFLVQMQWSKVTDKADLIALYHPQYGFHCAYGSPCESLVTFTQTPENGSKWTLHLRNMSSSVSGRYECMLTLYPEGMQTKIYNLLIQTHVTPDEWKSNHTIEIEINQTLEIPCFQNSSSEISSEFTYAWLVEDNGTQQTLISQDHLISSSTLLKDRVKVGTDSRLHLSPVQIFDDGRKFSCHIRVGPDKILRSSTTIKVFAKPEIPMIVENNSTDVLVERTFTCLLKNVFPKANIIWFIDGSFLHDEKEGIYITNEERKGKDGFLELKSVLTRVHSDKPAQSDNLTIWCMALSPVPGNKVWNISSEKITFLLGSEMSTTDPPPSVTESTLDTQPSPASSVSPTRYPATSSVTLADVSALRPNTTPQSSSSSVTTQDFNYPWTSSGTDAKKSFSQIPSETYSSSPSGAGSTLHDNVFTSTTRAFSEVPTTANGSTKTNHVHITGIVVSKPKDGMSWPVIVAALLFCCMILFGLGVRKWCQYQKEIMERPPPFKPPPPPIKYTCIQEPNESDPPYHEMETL

T2: cynomolgus monkey CD96v2 expressed on cells (cynomolgus monkey, UniProt A0A2K5TWV6 22-569)
T2 construct: also called CHO-cyCD96; Cyno CD96v2
T2 sequence: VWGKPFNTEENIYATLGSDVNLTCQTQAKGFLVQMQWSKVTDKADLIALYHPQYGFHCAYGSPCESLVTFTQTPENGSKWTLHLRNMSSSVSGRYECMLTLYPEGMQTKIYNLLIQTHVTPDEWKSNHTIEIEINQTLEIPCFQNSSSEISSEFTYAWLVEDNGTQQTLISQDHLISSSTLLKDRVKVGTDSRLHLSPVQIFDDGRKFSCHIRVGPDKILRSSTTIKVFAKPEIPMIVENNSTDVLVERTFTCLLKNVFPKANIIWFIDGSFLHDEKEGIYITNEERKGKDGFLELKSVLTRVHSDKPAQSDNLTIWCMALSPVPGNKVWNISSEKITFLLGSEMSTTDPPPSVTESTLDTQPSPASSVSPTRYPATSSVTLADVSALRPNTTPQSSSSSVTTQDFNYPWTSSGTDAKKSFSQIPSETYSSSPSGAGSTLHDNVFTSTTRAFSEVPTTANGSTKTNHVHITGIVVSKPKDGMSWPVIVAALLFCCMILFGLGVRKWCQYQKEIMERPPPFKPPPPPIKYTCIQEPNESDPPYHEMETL

T3: human CD96v1 expressed on HEK cells (human, UniProt P40200 22-585)
T3 construct: whole, on cells
T3 sequence (looked up): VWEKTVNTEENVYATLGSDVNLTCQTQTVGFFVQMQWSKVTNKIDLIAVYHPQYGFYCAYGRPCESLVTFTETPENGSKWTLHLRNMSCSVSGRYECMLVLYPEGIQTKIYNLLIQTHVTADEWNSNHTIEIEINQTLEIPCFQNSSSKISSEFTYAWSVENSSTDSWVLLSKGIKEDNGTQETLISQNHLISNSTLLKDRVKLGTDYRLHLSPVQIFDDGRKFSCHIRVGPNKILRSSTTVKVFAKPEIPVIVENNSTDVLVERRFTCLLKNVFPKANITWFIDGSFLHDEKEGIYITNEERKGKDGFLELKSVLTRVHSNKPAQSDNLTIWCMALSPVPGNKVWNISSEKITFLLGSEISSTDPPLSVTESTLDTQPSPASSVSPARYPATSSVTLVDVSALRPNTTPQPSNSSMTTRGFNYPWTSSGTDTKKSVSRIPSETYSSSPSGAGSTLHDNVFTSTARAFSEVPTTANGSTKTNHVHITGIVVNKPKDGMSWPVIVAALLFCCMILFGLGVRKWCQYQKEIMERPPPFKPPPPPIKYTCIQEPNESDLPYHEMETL

B1: 42Y073-86F08-66 (antibody, human IgG1, kappa)
heavy: not shown
light: DIQLTQSPSSLSASVGDRVTITCRASQSISSYLNWYQQKPGKAPKLLIYAASSLQSGVPSRFSGSGSGTDFTLTISSLQPEDFATYYCQQVLHTITFGGGTKVEIKRTVAAPSVFIFPPSDEQLKSGTASVVCLLNNFYPREAKVQWKVDNALQSGNSQESVTEQDSKDSTYSLSSTLTLSKADYEKHKVYACEVTHQGLSSPVTKSFNRGEC
notes: expressed in CHO or HEK cells; also called GSK 6097608; GSK6097608
B2: 42Y073-86F08-3 (antibody, V domains shown)
VH: QVQLVQSGAEVKKPGSSVKVSCKASGGTFVNYAISWVRQAPGQGLEWMGGIIPALGTANYAQKFQGRVTITADESTSTAYMELSSLRSEDTAVYYCARGAGYYGDKDPMDVWGQGTTVTVSS
VL: DIQLTQSPSSLSASVGDRVTITCRASQSISSYLNWYQQKPGKAPKLLIYAASSLQSGVPSRFSGSGSGTDFTLTISSLQPEDFATYYCQQVLHTITFGGGTKVEIK

Key:
[1] = biological target: T1, native cynomolgus monkey CD96 on …; assay: flow cytometry on activated primary cynomolgus monkey T cells (PE median MFI), pooled donor
[2] = biological target: T2, cynomolgus monkey CD96v2 expressed on …; assay: flow cytometry on transiently transfected HEK cells (normalised MFI), upper left panel
[3] = biological target: T3, human CD96v1 expressed on HEK cells; assay: as above
[4] = biological target: T2, cynomolgus monkey CD96v2 expressed on …; assay: flow cytometry, CHO cells expressing cynomolgus CD96v2
Experimental: CHO cells expressing human CD96v2 or cynomolgus monkey CD96v2 were prepared in PBS. The cynomolgus monkey CD96v2 cells were stained with 1 μM violet proliferation dye (VPD450). […] The stained CHO-cyCD96 and unstained CHO-huCD96 cells were combined and added to wells of a 384-well assay plate together with dilutions of test anti-CD96 binding proteins for 1h at 4° C. Cells were further incubated with anti-IgG APC conjugate antibody and the amount of surface bound antibody on each of the CHO-cyCD96 and CHO-huCD96 cells was determined by flow cytometry. Median fluorescence intensity (MFI) values were fitted using a 4 parameter logistic model to calculate the EC50 of binding.

Row | Binder | EC50 (read off the curve) [1] [nM] | EC50 (read off the curve) [2] [nM] | EC50 (read off the curve) [3] [nM] | EC50 [4] [nM]
1 | B1 | ~0.06 | ~8 | ~4 | –
2 | B2 | – | – | – | 0.08
